The values that follow come from US20110044994A1 (THERACLONE SCIENCES, published 2011).

Assay [1] concerns the target JR-CSF pseudovirus (HIV-1 Env on the virions) (HIV-1, UniProt P20871 32-848). The experiment in a line: cell-based or functional assay.
In assay [2] the target is 92RW020 pseudovirus Env (HIV-1). The experiment in a line: cell-based or functional assay.
Assay [3] has as its target ADA pseudovirus Env (HIV-1). The experiment in a line: cell-based or functional assay.
For assay [4], the target named is JR-FL (E168K) pseudovirus Env (HIV-1). The experiment in a line: cell-based or functional assay.
Assay [5] has as its target T1, recombinant gp41HxB2 (HIV-1, UniProt P04578 541-682).
T1 construct: domain: gp41
The experiment in a line: ELISA screen of B cell culture supernatants.

The target in assay [6] is T2, recombinant, monomeric gp120JR-CSF (HIV-1, UniProt P20871 32-503).
T2 construct: domain: gp120; also called JR-CSF gp120; JR-CSFgp120
The experiment in a line: ELISA screen of B cell culture supernatants.

Assay [7] deals with T2, recombinant, monomeric gp120JR-CSF. In words: mAb specificity by ELISA.
Assay [8] deals with T1, recombinant gp41HxB2. The experiment in a line: ELISA. On the technique in general: ELISA stands for enzyme-linked immunosorbent assay.

B1: 1443_C16 (PG16) (antibody, V domains shown)
VH: QEQLVESGGGVVQPGGSLRLSCLASGFTFHKYGMHWVRQAPGKGLEWVALISDDGMRKYHSDSMWGRVTISRDNSKNTLYLQFSSLKVEDTAMFFCAREAGGPIWHDDVKYYDFNDGYYNYHYMDVWGKGTTVTVSS
VL: QSALTQPASVSGSPGQTITISCNGTSSDVGGFDSVSWYQQSPGKAPKVMVFDVSHRPSGISNRFSGSKSGNTASLTISGLHIEDEGDYFCSSLTDRSHRIFGGGTKVTVLG
B1: the “IC50 (ug/ml), pseudovirus neutralization, TZM-bl assay” value stood at 0.001 µg/mL in assay [1], 0.09 µg/mL in assay [2], 0.004 µg/mL in assay [3] and 0.006 µg/mL in assay [4]. Further, the binding result in assay [5] and in assay [6] was “no binding” each time.

B2: 1456_P20 (PG20) (antibody, human IgG1, kappa, V domains shown)
VH: QVRLVQSGPEVKKPGSSVTVSCQASGGTFSSYAFTWVRQAPGQGLEWLGMVTPIFGEAKYSQRFEGRVTITADESTSTTSIELRGLTSEDTAIYYCARDRRAVPIATDNWLDPWGQGTLVTVSS
VL: DIQLTQSPSSLSASVGDRVSITCRASQTINNYLNWYQQTPGKAPKLLIYGASNLQNGVPSRFSGSGSGTDFTLTISSLQPEDFATYYCQQSFSTPRTFGQGTRLDIKR
B2: the binding result in assay [7] was “binds”; in assay [8] it was “no binding”.

B3: 1460_G14 (PGG14) (antibody, human IgG1, kappa, V domains shown)
VH: QVLLVQSGTEVKKPGSSVKVSCQASGGAFSSYAFSWVRQAPGQGLEWMGMITPVFGETKYAPRFQGRLTLTAEESLSTTYMELRSLTSDDTAFYYCTRDRRVVPMATDNWLDPWGQGTLVTVSS
VL: DIQLTQSPSSLSASVGDRVTVTCRASQTIHTYLNWYQQIPGKAPKLLIYGASTLQSGVPSRFSGSGSGTDFTLTINSLQPEDFATYYCQQSYSTPRTFGQGTRLDIKR
For B3, the figures for the binding result in assay [7] and in assay [8] were “binds” and “no binding”, respectively.

B4: 1495_C14 (PGC14) (antibody, human IgG1, lambda, V domains shown)
VH: DGHLVQSGVEVKKTGATVKISCKVSGYSFIDYYLHWVQRAPGKGLEWVGLIDPENGEARYAEKFQGRVTIIADTSIDTGYMEMRSLKSEDTAVYFCAAGAVGADSGSWFDPWGQGTLVTVSS
VL: SYELTQPPSVSVSPGQTASITCSGSKLGDKYVSWYQLRPGQSPILVMYENDRRPSGIPERFSGSNSGDTATLTISGTQALDEADFYCQAWETTTTTFVFFGGGTQLTVLG
As to B4, the results for the binding result in assay [7] and in assay [8] were “binds” and “no binding”, respectively.

B5: 1496_C09 (PG9) (antibody, V domains shown)
VH: QRLVESGGGVVQPGSSLRLSCAASGFDFSRQGMHWVRQAPGQGLEWVAFIKYDGSEKYHADSVWGRLSISRDNSKDTLYLQMNSLRVEDTATYFCVREAGGPDYRNGYNYYDFYDGYYNYHYMDVWGKGTTVTVSS
VL: QSALTQPASVSGSPGQSITISCNGTSNDVGGYESVSWYQQHPGKAPKVVIYDVSKRPSGVSNRFSGSKSGNTASLTISGLQAEDEGDYYCKSLTSTRRRVFGTGTKLTVLG
As for B5, the “IC50 (ug/ml), pseudovirus neutralization, TZM-bl assay” value in assay [2] came to 0.1 µg/mL; in assay [3], 0.2 µg/mL. The binding result in assay [5] is on record as “no binding”.
